From patent publication US20260210971A1 (Pfizer, published 2026)

Biological target: T1, endogenous TL1A of stimulated cynomolgus monkey peripheral blood (cynomolgus monkey, UniProt G7PRK8 72-251)
T1 construct: also called sTL1A (cynomolgus)
T1 sequence: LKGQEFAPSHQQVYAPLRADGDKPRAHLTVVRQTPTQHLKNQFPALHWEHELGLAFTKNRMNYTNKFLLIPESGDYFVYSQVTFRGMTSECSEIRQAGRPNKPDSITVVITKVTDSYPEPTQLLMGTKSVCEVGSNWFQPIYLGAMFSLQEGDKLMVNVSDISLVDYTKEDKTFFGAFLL
Assay: MSD ligand-binding assay of 1D1 1.31-free sTL1A in plasma of stimulated cynomolgus blood; upper end over the monkeys; upper end of range over 6 monkeys
Protocol: Cynomolgus monkey peripheral blood treated with 1 ng/ml recombinant human IL-12 and 10 ng/ml recombinant human IL-18 was stimulated by immune complex coated plates for 24 hours at 37° C. […] Plasma was prepared from these samples and IFNγ was measured in the plasma samples by a quantitative immune-ligand binding assay using a Mesoscale (MSD) kit. […] Cynomolgus monkey peripheral blood treated with 1 ng/ml recombinant human IL-12 and 10 ng/ml recombinant human IL-18 was stimulated by immune complex coated plates for 24 hours at 37° C.
For IC and IL-12 and IL-18 stimulation, cynomolgus monkey blood was collected in sodium heparin coated tubes and used within one hour after the blood draw. Human IL-12 (1 ng/mL final concentration) and human IL-18 (10 ng/ml final concentration) were mixed in with blood prior to addition of 95 μL of the blood/IL-12/IL-18 mixture to each well of the IC coated plates.

B1: 1D1 1.31 (antibody, human IgG1, kappa, V domains shown)
VH: QVQLVQSGAEVKKPGASVKVSCKASGYDFTYYGISWVRQAPGQGLEWMGWISTYNGNTHYARMLQGRVTMTTDTSTRTAYMELRSLRSDDTAVYYCARENYYGSGAYRGGMDVWGQGTTVTVSS
VL: EIVLTQSPATLSLSPGERATLSCRASQSVSSYLAWYQQKPGQAPRLLIYDASNRATGIPARFSGSGSGTDFTLTISSLEPEDFAVYYCQQRSNWPWTFGQGTKVEIKR
notes: Full length human IgG1 with effector function-null mutations in the Fc, produced in CHO cells; Used biotinylated for staining of monocytes
- IC50: 0.09 nM
